The values below come from patent CN111995674A (INST MILITARY MEDICINE ACADEMY MILITARY SCIENCES PLA, dated 2020).

For the assay, the target named is T1, 肉毒毒素AHC片段 (UniProt P0DPI1 873-1296).
T1 construct: domain: AHC片段
In words: ELISA, coated antigen, anti-human IgG-HRP. On the technique in general: In an ELISA, binding on a coated surface is turned into a signal by an enzyme label.

T1 sequence (P0DPI1 873-1296 limits assumed): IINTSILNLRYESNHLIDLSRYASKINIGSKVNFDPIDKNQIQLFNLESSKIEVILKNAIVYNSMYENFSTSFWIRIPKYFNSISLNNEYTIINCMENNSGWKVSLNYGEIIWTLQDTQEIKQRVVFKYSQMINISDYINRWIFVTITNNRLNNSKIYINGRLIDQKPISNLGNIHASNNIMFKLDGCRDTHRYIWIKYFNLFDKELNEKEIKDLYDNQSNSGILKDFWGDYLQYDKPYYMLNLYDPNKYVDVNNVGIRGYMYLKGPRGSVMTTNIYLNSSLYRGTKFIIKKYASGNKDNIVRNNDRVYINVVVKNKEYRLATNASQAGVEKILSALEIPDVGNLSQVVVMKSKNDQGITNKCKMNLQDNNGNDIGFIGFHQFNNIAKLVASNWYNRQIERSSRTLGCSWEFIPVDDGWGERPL

B1: 人鼠嵌合全抗体mhC3 (antibody, V domains shown)
VH: EVQLVESGGDLVKPGGSLKLSCAASGFTFNTYAMNWVRQTPGKGLEWVARIRSKSNNYATYYADSVKDRFTISRDDSQSMLYLQMNNLKTEDTAMYYCVTPYYGNYADWFTYWGQGTSVTVSS
VL: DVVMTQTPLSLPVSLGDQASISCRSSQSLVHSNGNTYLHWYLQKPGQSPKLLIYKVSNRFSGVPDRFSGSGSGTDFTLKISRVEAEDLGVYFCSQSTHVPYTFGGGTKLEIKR
notes: also called mhC3抗体; C3 (图5、图6)
With B1, the binding result was “no binding (tested: 300μg/mL)”.
